Measurements from article PMC8809517, “Cofactor-independent RNA editing by a synthetic S-type PPR protein”.

Tests used:
Assay in all cases: high-throughput RNA pulldown from lysate on Ni-NTA beads; HRP: 50 mM Tris pH 8, 150 mM NaCl, 1 mM beta-mercaptoethanol, 50 ug/ml BSA, 3 ug/ml yeast RNA, 0.5% heparin; ITC and FP: Tris pH 8, 200 mM KCl, 5% glycerol; MST: 50 mM Tris pH 8, 200 mM NaCl, 1 mM DTT, BSA, heparin, 0.05% Tween 20
Conditions in all cases: tags: N-terminal His-eGFP
[1] = biological target: T1, GFP-9S library array, motif 4 ND N98P;D124E (synthetic construct, N98P;D124E)
T1 chain: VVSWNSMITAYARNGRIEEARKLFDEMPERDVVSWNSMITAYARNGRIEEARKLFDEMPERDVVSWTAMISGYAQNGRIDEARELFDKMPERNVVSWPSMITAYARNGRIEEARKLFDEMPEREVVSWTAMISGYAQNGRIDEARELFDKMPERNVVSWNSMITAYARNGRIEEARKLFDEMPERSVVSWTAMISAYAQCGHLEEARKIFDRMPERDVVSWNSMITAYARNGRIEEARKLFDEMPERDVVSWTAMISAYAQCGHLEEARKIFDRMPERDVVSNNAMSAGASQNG

[2] = biological target: T2, GFP-9S library array, motif 4 ND N98T;D124F (synthetic construct, N98T;D124F)
T2 chain: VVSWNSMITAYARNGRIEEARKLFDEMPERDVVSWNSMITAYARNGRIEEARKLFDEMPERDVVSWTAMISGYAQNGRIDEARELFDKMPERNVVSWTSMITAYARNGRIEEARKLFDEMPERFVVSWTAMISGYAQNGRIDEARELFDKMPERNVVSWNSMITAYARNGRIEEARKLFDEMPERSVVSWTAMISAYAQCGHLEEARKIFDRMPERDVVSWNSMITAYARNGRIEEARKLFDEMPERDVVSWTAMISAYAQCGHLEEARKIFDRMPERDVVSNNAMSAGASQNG

[3] = biological target: T3, GFP-9S library array, motif 4 ND N98G;D124Q (synthetic construct, N98G;D124Q)
T3 chain: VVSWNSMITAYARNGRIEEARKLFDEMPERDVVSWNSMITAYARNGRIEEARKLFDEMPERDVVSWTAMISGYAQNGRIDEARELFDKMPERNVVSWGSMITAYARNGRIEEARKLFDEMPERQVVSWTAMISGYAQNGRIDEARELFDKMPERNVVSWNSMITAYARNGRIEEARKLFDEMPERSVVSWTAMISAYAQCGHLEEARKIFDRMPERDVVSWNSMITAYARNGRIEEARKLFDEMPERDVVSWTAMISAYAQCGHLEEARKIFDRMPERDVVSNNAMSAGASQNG

[4] = biological target: T4, GFP-9S library array, motif 4 ND N98E;D124P (synthetic construct, N98E;D124P)
T4 chain: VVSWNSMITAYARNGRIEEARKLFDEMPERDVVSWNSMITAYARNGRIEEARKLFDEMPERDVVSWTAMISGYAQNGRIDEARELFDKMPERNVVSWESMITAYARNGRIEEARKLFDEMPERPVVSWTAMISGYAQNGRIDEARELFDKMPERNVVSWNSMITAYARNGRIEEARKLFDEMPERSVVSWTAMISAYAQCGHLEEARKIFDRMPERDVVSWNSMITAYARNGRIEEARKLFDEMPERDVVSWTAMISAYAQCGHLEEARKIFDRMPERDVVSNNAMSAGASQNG

[5] = biological target: T5, GFP-9S library array, motif 4 ND N98R;D124R (synthetic construct, N98R;D124R)
T5 chain: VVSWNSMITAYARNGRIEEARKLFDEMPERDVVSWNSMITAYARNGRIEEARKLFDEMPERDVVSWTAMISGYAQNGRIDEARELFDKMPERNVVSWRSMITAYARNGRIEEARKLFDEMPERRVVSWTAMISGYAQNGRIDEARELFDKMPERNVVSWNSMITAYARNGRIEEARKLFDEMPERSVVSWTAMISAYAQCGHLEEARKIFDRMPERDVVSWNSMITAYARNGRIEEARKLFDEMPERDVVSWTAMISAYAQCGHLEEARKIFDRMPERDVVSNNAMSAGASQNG

In the case of AUUACACGUGA (ssRNA) [Cy5-rpoA], the Kd ([1]; label: 5' Cy5) is reported as 204 nM, the Kd ([2]; label: 5' Cy5) is reported as 241 nM and the Kd ([3]; label: 5' Cy5) is reported as 96.6 nM. It also gave a Kd ([4]; label: 5' Cy5) of 130 nM and a Kd ([5]; label: 5' Cy5) of 97.6 nM.

For AUUAGACGUGA (ssRNA) [Cy5-rpoA-G], the Kd ([1]; label: 5' Cy5) was 220 nM, the Kd ([2]; label: 5' Cy5) was 160 nM and the Kd ([3]; label: 5' Cy5) was 109 nM. For the same binder, the Kd ([4]; label: 5' Cy5) was 102 nM and the Kd ([5]; label: 5' Cy5) was 53.3 nM.

AUUAAACGUGA (ssRNA) [IR-rpoA-A] was tested, and the Kd ([1]; label: 5' IRDye 800CW) was 386 nM, the Kd ([2]; label: 5' IRDye 800CW) was 173 nM and the Kd ([3]; label: 5' IRDye 800CW) was 150 nM. It also gave a Kd ([4]; label: 5' IRDye 800CW) of 264 nM and a Kd ([5]; label: 5' IRDye 800CW) of 82 nM.

For AUUAUACGUGA (ssRNA) [IR-rpoA-U], the Kd ([1]; label: 5' IRDye 800CW) was 309 nM, the Kd ([2]; label: 5' IRDye 800CW) was 637 nM and the Kd ([3]; label: 5' IRDye 800CW) was 142 nM. The Kd ([4]; label: 5' IRDye 800CW) was 271 nM and the Kd ([5]; label: 5' IRDye 800CW) was 97.9 nM.
